Data reported in PMC5562914, “Activation of an anti-bacterial toxin by the biosynthetic enzyme CysK: mechanism of binding, interaction specificity and competition with cysteine synthase” (Scientific Reports, 2017).
Several values for one entry are separate records, joined by “and”; a condition that tells them apart may be missing. Equal values may be shown once.

Experiments:
[1] = target: CysK from Neisseria lactamica ATCC 23970, His6-tagged (Neisseria lactamica ATCC 23970); assay: other fluorescence titration; PLP fluorescence emission at 500 nm; HiCysK (300 nM) or NlCysK (860 nM) titrated with CdiA-CT; read after 20 min; binding isotherm (Eq. 1)
[2] = target: CysK from Haemophilus influenzae, His6 tag removed with thrombin (Haemophilus influenzae) (UniProt P45040); assay: as above
[3] = target: T1, E. coli CysK (EcCysK), O-acetyl-L-Ser sulfhydrylase (E. coli, UniProt P0ABK5 1-323, pyridoxal 5'-phosphate (PLP) cofactor); assay: inhibition of enzyme activity (sulfhydrylase); 6 nM EcCysK titrated with CdiA-CT; buffer A with 2 mM O-acetyl-L-Ser, 0.6 mM Na2S, 60 nM BSA; Morrison equation gives an apparent IC50, converted to Ki (Eq. 4); conditions: both partners purified
T1 construct: CysK of E. coli; the E. coli cysK gene was amplified and ligated to pCH10068 (pSH21::trxA-TEV-cysK) for the purification of untagged EcCysK; not shown: TrxA, N-terminal, cleaved
T1 sequence (looked up): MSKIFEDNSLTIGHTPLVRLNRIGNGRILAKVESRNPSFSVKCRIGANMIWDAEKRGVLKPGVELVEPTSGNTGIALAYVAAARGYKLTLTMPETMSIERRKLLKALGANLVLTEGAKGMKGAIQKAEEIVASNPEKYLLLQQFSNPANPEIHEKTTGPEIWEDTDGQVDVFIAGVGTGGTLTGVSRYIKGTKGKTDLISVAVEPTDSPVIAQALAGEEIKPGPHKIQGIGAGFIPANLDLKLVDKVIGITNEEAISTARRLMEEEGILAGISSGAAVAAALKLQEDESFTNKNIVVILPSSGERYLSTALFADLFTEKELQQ

[4] = target: T1, E. coli CysK (EcCysK), O-acetyl-L-Ser …; assay: other fluorescence titration; PLP fluorescence (excitation 412 nm, emission 500 nm); 1 uM EcCysK titrated with CdiA-CT to saturation (stoichiometric titration); 20 C; conditions: both partners purified
[5] = target: T1, E. coli CysK (EcCysK), O-acetyl-L-Ser …; assay: other fluorescence titration; PLP fluorescence emission at 500 nm; 80 nM EcCysK titrated with CdiA-CT; data read after 20 min; quadratic tight-binding equation (Eq. 2); 20 C; conditions: both partners purified
[6] = target: T1, E. coli CysK (EcCysK), O-acetyl-L-Ser …; assay: inhibition of enzyme activity (sulfhydrylase); as a3 (6 nM EcCysK titrated with CdiA-CT) in the presence of 2.4 uM CdiI; conditions: both partners purified
[7] = target: T2, CdiA-CT toxin domain from uropathogenic Escherichia coli 536, Q0T963; assay: stopped-flow fluorescence; as a5, CysK concentration varied, 37 C; conditions: other: stopped-flow fluorescence
T2 chain: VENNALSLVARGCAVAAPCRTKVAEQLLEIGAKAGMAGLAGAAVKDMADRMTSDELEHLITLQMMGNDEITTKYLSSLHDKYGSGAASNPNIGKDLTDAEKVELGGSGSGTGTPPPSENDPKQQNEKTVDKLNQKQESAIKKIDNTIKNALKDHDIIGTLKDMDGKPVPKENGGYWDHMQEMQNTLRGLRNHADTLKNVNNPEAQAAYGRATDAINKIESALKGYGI

[8] = target: T2, CdiA-CT toxin domain from uropathogenic …; assay: stopped-flow fluorescence; as a5, CysK concentration varied, 5 C; conditions: other: stopped-flow fluorescence
[9] = target: T2, CdiA-CT toxin domain from uropathogenic …; assay: stopped-flow fluorescence; PLP fluorescence, excitation 412 nm; buffer A; pseudo-first order, 200 nM EcCysK or 270 nM CdiA-CT fixed and the partner varied; 20 C; slope of kobs against concentration; conditions: other: stopped-flow fluorescence
[10] = target: the molecule itself; assay: SEC; Ultrogel AcA44 column, 0.2 mL/min, buffer A

Question: For “CdiA-CT toxin domain from uropathogenic Escherichia coli 536 (from UniProt Q0T963 3016-3242) (domain or fragment)”, which Kd [1] is on record?
Answer: 6400 nM

Question: And the Kd [2]?
Answer: 3300 nM

B1: CdiA-CT toxin domain from uropathogenic Escherichia coli 536 (domain or fragment)
chain: VENNALSLVARGCAVAAPCRTKVAEQLLEIGAKAGMAGLAGAAVKDMADRMTSDELEHLITLQMMGNDEITTKYLSSLHDKYGSGAASNPNIGKDLTDAEKVELGGSGSGTGTPPPSENDPKQQNEKTVDKLNQKQESAIKKIDNTIKNALKDHDIIGTLKDMDGKPVPKENGGYWDHMQEMQNTLRGLRNHADTLKNVNNPEAQAAYGRATDAINKIESALKGYGI
notes: C-terminal toxin domain (CdiA-CT) of CdiA, uropathogenic E. coli 536
Question: Which results are given for B1?
Answer: IC50 [3]: 15.4 ± 0.6 nM; Ki [3]: 11 ± 0.4 nM; stoichiometry N [4]: 1.1 CdiA-CT:EcCysK; Kd [5]: 10 ± 11 nM

B2: CdiA-CT in the presence of excess CdiI immunity protein (CdiA-CT:CdiI) (complex)
chain 1: VENNALSLVARGCAVAAPCRTKVAEQLLEIGAKAGMAGLAGAAVKDMADRMTSDELEHLITLQMMGNDEITTKYLSSLHDKYGSGAASNPNIGKDLTDAEKVELGGSGSGTGTPPPSENDPKQQNEKTVDKLNQKQESAIKKIDNTIKNALKDHDIIGTLKDMDGKPVPKENGGYWDHMQEMQNTLRGLRNHADTLKNVNNPEAQAAYGRATDAINKIESALKGYGI
chain 2: MITLRKLIGNINMTKEPEQQSPLELWFERIIDVPLEKLTVEDLCRAIRQNLCIDQLMPRVLEVLTKEPLAGEYYDGELIAALSTIKGEDLKDQKSTFTQIRQLINQLEPSDINDDLRKDILKINQIIV
Question: How did the Ki [6] turn out when B2 was run?
Answer: 6.4 ± 0.5 nM

B3: E. coli CysK (EcCysK), O-acetyl-L-Ser sulfhydrylase (protein)
chain: MSKIFEDNSLTIGHTPLVRLNRIGNGRILAKVESRNPSFSVKCRIGANMIWDAEKRGVLKPGVELVEPTSGNTGIALAYVAAARGYKLTLTMPETMSIERRKLLKALGANLVLTEGAKGMKGAIQKAEEIVASNPEKYLLLQQFSNPANPEIHEKTTGPEIWEDTDGQVDVFIAGVGTGGTLTGVSRYIKGTKGKTDLISVAVEPTDSPVIAQALAGEEIKPGPHKIQGIGAGFIPANLDLKLVDKVIGITNEEAISTARRLMEEEGILAGISSGAAVAAALKLQEDESFTNKNIVVILPSSGERYLSTALFADLFTEKELQQ
Question: Which results are given for B3?
Answer: second-order rate constant k3/Kd (slope of kobs against CysK concentration, 37 °C) [7]: 0.099 ± 0.019 µM^−1·s^−1 (37 °C); second-order rate constant k3/Kd (slope of kobs against CysK concentration, 5 °C) [8]: 0.005 ± 0.0003 µM^−1·s^−1 (5 °C); second-order rate constant k3/Kd (slope of kobs against protein concentration) [9]: 19000 ± 7000 M⁻¹ s⁻¹ and 17000 ± 7000 M⁻¹ s⁻¹

B4: E. coli CysE (EcCysE), serine O-acetyltransferase (enzyme, UniProt P0A9D4 1-273, looked up)
chain: MSCEELEIVWNNIKAEARTLADCEPMLASFYHATLLKHENLGSALSYMLANKLSSPIMPAIAIREVVEEAYAADPEMIASAACDIQAVRTRDPAVDKYSTPLLYLKGFHALQAYRIGHWLWNQGRRALAIFLQNQVSVTFQVDIHPAAKIGRGIMLDHATGIVVGETAVIENDVSILQSVTLGGTGKSGGDRHPKIREGVMIGAGAKILGNIEVGRGAKIGAGSVVLQPVPPHTTAAGVPARIVGKPDSDKPSMDMDQHFNGINHTFEYGDGI
notes: CysE of E. coli; cysE amplified with primers CH3642/CDI235 (the fragment that also gives 'native EcCysE'); not shown: His6-thioredoxin (His6-TrxA), N-terminal, cleaved
Question: How did the “stoichiometry N” value [10] turn out when B4 was run?
Answer: 6
